Results on one molecule are retold here after paper PMC3774783.

The target of the series is HCoV-OC43 N WT (Human coronavirus OC43, UniProt P33469 1-448). The series is described as follows: SPR.
HCoV-OC43 N WT, sequence (P33469 whole entry): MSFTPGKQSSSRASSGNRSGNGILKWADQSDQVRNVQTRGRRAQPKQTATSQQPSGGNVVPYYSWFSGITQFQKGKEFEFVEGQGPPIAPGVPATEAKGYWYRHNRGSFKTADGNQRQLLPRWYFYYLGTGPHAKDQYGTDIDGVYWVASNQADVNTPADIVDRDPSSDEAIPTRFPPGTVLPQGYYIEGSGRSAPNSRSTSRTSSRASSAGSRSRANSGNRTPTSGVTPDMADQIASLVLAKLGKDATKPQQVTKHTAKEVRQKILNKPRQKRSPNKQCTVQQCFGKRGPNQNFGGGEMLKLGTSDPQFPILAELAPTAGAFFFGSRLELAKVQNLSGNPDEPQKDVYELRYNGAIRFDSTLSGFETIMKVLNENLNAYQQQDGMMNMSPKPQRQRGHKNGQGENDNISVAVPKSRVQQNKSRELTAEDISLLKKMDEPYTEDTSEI

B1: (UCUAAAC)4 28-mer (ssRNA)
RNA: UCUAAACUCUAAACUCUAAACUCUAAAC
As to B1, the dissociation constant Kd (in general, the free concentration of one partner at which half of the binding sites on the other are occupied at equilibrium, for simple one-to-one binding) was 11.7 ± 0.82 nM.
